Laboratory results taken from the nanobody polyreactivity screen of Harvey et al. (2022).

Assay: yeast display, Sf9 membrane polyspecificity reagent, FACS + sequencing; frameworks hold sequencing errors
How it was run: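 Polyreactivity labels are assigned by the sorting gate from which each nanobody was recovered. The gates were low and high (top ~1%), set on anti-HA fluorescence for expression and streptavidin fluorescence for reagent binding. Before sorting, galactose-induced (36–48 hours) yeast display cells were stained for 1 hour at 4 °C with 10% biotinylated, detergent-solubilized Sf9 membrane reagent.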

| Sequence | polyreactivity (PSR sort gate) |
| --- | --- |
| QVQLVESGGGLVQAGGSLRLSCAASGRTLASNAMGWYRQAPGKEREFVAAITDSGGRTYYADSVKGRFTISRDNAKNTVYLQMNSLKPEDTAVYYCNAYQYYERYDTYLFRYDYWGQGTQVTVSS | low polyreactivity |
| QVQLVESGGGLVQAGGSLRLSCAASGRTLATYAMGWYRQAPGKERELVADISWRGGTTYYADSVKGRFTISRDNAKNTVYLQMNSLKPEDTAVYYCAAVRKQGSGFDYWGQGTQVTLSS | high polyreactivity |
| QVQLVESGGGLVQAGGSLRLSCAASGRTLDKYAIGWYRQAPGKERELVAAITSGGTTKYADSVKGRFTISRDNAKNTVYLQMNSLKPEVTAVYYCAKDLEGNPHFSYGIDFDYWGQGTQVTVSS | low polyreactivity |
| QVQLVESGGGLVQAGGSLRLSCAASGRTLDKYAMGWYRQAPGKERELVAAITSGGSTNYADSVKGRFTISRDNAKNTVYLQMNSLKPEDTAVYYCAKDLQGNPHFSYGIDFDYWGQGTQVTVSS | low polyreactivity |
| QVQLVESGGGLVQAGGSLRLSCAASGRTLEDYVMGWYRQAPGKERELVAAISWSGVSTYYADSVKGRFTISRDNEKNTVYLQMNSLKPEDTAVYYCAKDSTADELTGFDYWGQGTQVNVSS | low polyreactivity |
| QVQLVESGGGLVQAGGSLRLSCAASGRTLFHYAMGWYRQAPGKERELVAAIRNSDGSTYYADSVKGRFTISRDNAKNTVYLQMNSLKPEDTAVYYCAAVRRYHSYPDGGYWGQGTQVTVSS | high polyreactivity |
| QVQLVESGGGLVQAGGSLRLSCAASGRTLGGYAMGWYIQATGKERELVAAITRRGGSTYYADSVKGRFTISRDNAKNTVYLQMNSLKPEDTAVYYCAARWYARSLTRFNYWGQGTQVTVSS | high polyreactivity |
| QVQLVESGGGLVQAGGSLRLSCAASGRTLGGYTMGWYRQAPGKEREVVAGISFRGDSTYYADSVKGRFTLSRANAKNTVYLQMNSLKPEDTAVYYCNARGTPWRYGGDYWGQGTQVTVSS | low polyreactivity |
| QVQLVESGGGLVQAGGSLRLSCAASGRTLGRYAMGWYRQAPGKERELVAAMNVGGGTTHYADSVKGRFTISRDNAKNTVYLQMNSLKPEDTAVYYCAAYRYTYGDRHAYDYWGQGTQVTVSS | low polyreactivity |
| QVQLVESGGGLVQAGGSLRLSCAASGRTLGYYAMGWYRQAPGTERELVAAISGSGGITYYADSVKGRFTISRDNAKNTVYLQMNSLKPEDTAVYFCNVDPTAKWFNYDSWGQGTQVTVSS | low polyreactivity |
| QVQLVESGGGLVQAGGSLRLSCAASGRTLHAYTMGWYRQAPGSERELVAAITRGGGNTYYADSVKGRFTISRDNAKNTVYLQLNSLKPEDTAVYYCNAAVSGYLSYEYDYWGQGTQVTVSS | low polyreactivity |
| QVQLVESGGGLVQAGGSLRLSCAASGRTLHYYAMGWYRQAPGKERELVAAISARVGRTYYADSVKGRFTISRDNAKNTVYLQMNSLKPEDTEVYYCAAAGYITRYDRYDYWGQGTQVTVSS | high polyreactivity |
| QVQLVESGGGLVQAGGSLRLSCAASGRTLIAYAMGWYRQAHGKEREFVAAIRADDGRTYYADSVKGRFTISRDNAKNTVYFQMNSLKPEDTAVYYCDTKADKRYRFGYWGQGTQVTVSS | high polyreactivity |
| QVQLVESGGGLVQAGGSLRLSCAASGRTLIYNVMGWYRQAPGKERELVAAITNGGSTYYADSVKGRFTISRDNAKNTVYLQMNSLKPEDTAVYYCATRYGKTYWGQGNQVTVSS | high polyreactivity |
| QVQLVESGGGLVQAGGSLRLSCAASGRTLKYNAKGGNRQAPGKARELVAALTNSGTRTYYADSVKGRFTISRDNAKNTVYLQMNSQKPEDTAVYYCAKDSYPYLRVGHLKYRVKTYGHWGQGTQVTVSS | high polyreactivity |
| QVQLVESGGGLVQAGGSLRLSCAASGRTLKYYAMGWYRQAPGKERELVAAITWSGTRTFYADSVKGRFTISRDNAKNTVYLQMNSLKPEDTAVYYCARTYYGGAGYEYWGQVTQVTVSS | high polyreactivity |
| QVQLVESGGGLVQAGGSLRLSCAASGRTLNNNAMGWYRQAPGKERELVAAISRSGGRTYYADSVKGRFTISRDNAKNTVYLQMNSLKPEDTAVYYCAAVNIRFGYADRFYYVYRGDEWGQGTQVTVSS | high polyreactivity |
| QVQLVESGGGLVQAGGSLRLSCAASGRTLNWYAMGWYRQAPGKERELVAVINLSGGRTYYADSVKGRFTISRDNAKNTVYLQMNSLKPEDTAVYYCNAPSVWERSYEKYDYWGQATQVTVSS | low polyreactivity |
| QVQLVESGGGLVQAGGSLRLSCAASGRTLPKYVLGWYRQSPGKERELVAAISSSGDSTYYADSVNGRFTISRDNAKNTVYLQMNILKPEDTAVYYCDKYDRNTYGYWGQGTQVTVST | low polyreactivity |
| QVQLVESGGGLVQAGGSLRLSCAASGRTLPSYSMGCYREAPGKERELFAAITGSGGRTYYADSVKGRFTISRDNAKNSVYLQMNSLKPEDTAVYYCNAYSRTWYARSYYYWGQGTQVTVSS | high polyreactivity |
| QVQLVESGGGLVQAGGSLRLSCAASGRTLQQYVMGWYRQAPGQERELVAAITRGGRTNYADSVKGRFTISRDNAKNTVYLQMNSLNPEDTAVYYCNTRYPSRLVAWLDYWGQGTQVTVSS | low polyreactivity |
| QVQLVESGGGLVQAGGSLRLSCAASGRTLRGYAMGWYRQAPGKERELVAAISKGGGSTFYADSVKGRFTISRDNAKNTVYLQMNSLKPEDTAVYYCAADYYSYTYYLDFDYWGQGTQVTVSS | high polyreactivity |

| Sequence | polyreactivity (PSR sort gate) |
| --- | --- |
| QVQLVESGGGLVQAGGSLRLSCAASGRTLRGYAMGWYRQAPGKERELVAAITWSGGSTYYADSVKGRFTISRDNAKNTVYLQMNSLKPEDTAVYYCNARSYPDLYDYWGQGTQVTVSS | low polyreactivity |
| QVQLVESGGGLVQAGGSLRLSCAASGRTLRKYAMGWYRQAPGKERELVAGFTGSAGSTYYADSVKGRFTISRDNAKNTVYLQMNSLKPEDTAVYYCAKSGLRYGFDYWGQGTQVTVSS | high polyreactivity |
| QVQLVESGGGLVQAGGSLRLSCAASGRTLRRYAMGWYRQAPGKERELVAAISRSGSSTYADSVKGRFTISRDNAKNTVSLQMNSLKPEDTAVYYCNAYQPRYGYWGQGTQVTVSS | high polyreactivity |
| QVQLVESGGGLVQAGGSLRLSCAASGRTLRSNAMGWYRQAPGKERELVAAISSNGGSTYYADSVKGRFTISRDNAKNTVYLQMNSLKPEDTAVYYCAALSYYYSDRMDYWGQGTQVSVSS | low polyreactivity |
| QVQLVESGGGLVQAGGSLRLSCAASGRTLRTYAMGWSRQAPGKERELVAAITSSGGRTYYADSVKGRFTISRDNAKNTVYLQMNSLKPEDTAVYYCAAARYYYGGDYWGQGTQVTVSS | high polyreactivity |
| QVQLVESGGGLVQAGGSLRLSCAASGRTLRTYGMGWYRQAPGKERELVARITIGGRTYYADSVKGRFTISRDNAKNTVYLQMNSLKPEDTAVYYCAARYAGGTSRILYGYWGQGTQVTVSS | high polyreactivity |
| QVQLVESGGGLVQAGGSLRLSCAASGRTLRWYAMGWYRQAPGKERELVAAINWSGTSTYYADSVKGRFTISRDNAKNTVYLQMNSLKPEDTAVYYCAKRVTWNYDWGQGTQVTVSS | high polyreactivity |
| QVQLVESGGGLVQAGGSLRLSCAASGRTLRYNTMGWYRQAPGKERELVAAITRSGTGTNYADSVKGRFTISRDNAKNTVYLQMNSLKPEDTAVYYCAAAPFPRRRYDYWGQGTQVTVSS | high polyreactivity |
| QVQLVESGGGLVQAGGSLRLSCAASGRTLRYYDMGWYRQEPGKEREIVAAISWSGVSTYYADSVKGRFTISRDNAKNTVYLQMNSMQPEDTAVYYCAVGYVLTGVFEARFDYWGQGTLVTVSS | high polyreactivity |
| QVQLVESGGGLVQAGGSLRLSCAASGRTLSNYAMGWSRQAPGKETELVAAISSSGSTNYADSVKGRFTISRDNAKNTVYLQMNSLKPEDTAVYYCAAESWFLRWYRYDYWGQGTQVSVSS | low polyreactivity |
| QVQLVESGGGLVQAGGSLRLSCAASGRTLSRYTMGWYRQAPGKERELVAAISTSGSTYYADSVKGRFTISRDNAKNTVYLQMNSLKPEDTAVYYCNAVRRYLQYATGYDYWGQGTQVTVSS | high polyreactivity |
| QVQLVESGGGLVQAGGSLRLSCAASGRTLSVYAMGWYRQAPGKERELVAAITWRGGSTYYADSVKGRFTISRDNAKNTVYLQMNSLKPEDTAVYYCAAEDYTYNGGGYEYWGQGTQVTVSS | low polyreactivity |
| QVQLVESGGGLVQAGGSLRLSCAASGRTLSVYAMGWYSQAPGKEMEFVAAISFSGGSTYYADSVKGRFTISRDNAKNTVYLQMNSQKPEDTAVYYCATAYPEFLSTTVGLLYLDDYWGQGTQVTVSS | low polyreactivity |
| QVQLVESGGGLVQAGGSLRLSCAASGRTLSYYAMGWYRQAPGKEREFVAAINWSGGSTYYADSVKGRFTISRDNAKNTVYLQMISLKPEDTAVYYCAAYRPYSSSEGDYWGQGTQVTVSS | high polyreactivity |
| QVQLVESGGGLVQAGGSLRLSCAASGRTLTRNAMAWYRQAPRTERELVAVITSSGSRTYYADSVKGRFTISRDNAKNTVYLQMNSLKPEDTAVYYCAAKVDASDVRRSRAGRYDYWGQGTQVTVSS | high polyreactivity |
| QVQLVESGGGLVQAGGSLRLSCAASGRTLTRYTMGWYRQAPGKERELVATISRSGGNTHYADSVKGRFTISRDNAKNTVYLQMNSLKPEDTAVYYCNAVRYAIYGYDYWGQGTQVTVSS | high polyreactivity |
| QVQLVESGGGLVQAGGSLRLSCAASGRTLVDYAMGWYRQAPGKERELVAAINFSGGSTNYADSVKGRFTISRDNAKNTVYLQMNSLKPEDTAVYYCNKEGRPDRDYWGQGTQVTVSS | low polyreactivity |
| QVQLVESGGGLVQAGGSLRLSCAASGRTLVKYAMGWYRQAPGKERELVAAITQRGGITYYADSVKGRFTISRDNAKNTVYLQMNSLKPEDTAVYYFAASLYSYRSPYTFYYWGQGTQVTVSS | high polyreactivity |
| QVQLVESGGGLVQAGGSLRLSCAASGRTLVRYAMGWYRQAPGKEREFVAGISYSGGSTYYADSVKGRFTISRDNAKNTVYLQMNSLKPEDTAVYYCAATTRGARKSGGNYWGQGTQVTVSS | high polyreactivity |
| QVQLVESGGGLVQAGGSLRLSCAASGRTLWLYAMGWYRQAPGKERELVAAITRSAGTTYYADSVKGRFTISRDNAKNTVYLQMNSLKPEDTAVYYCATRYPQSSLSTSSRSSSGYWGQGTQVTVSS | high polyreactivity |
| QVQLVESGGGLVQAGGSLRLSCAASGRTLWRYAMGWYRQAPGKERELVASIRSGGSTYYADSVKGRFTISRDNAKNTVYLQMNSLKPEDTAVYYCAARYYWGAEAGYYYWGQGTQVTVSS | high polyreactivity |
